Values belong to the substance of their own block, whether it stands above or below them.
Key:
[1] = target: rHuman EGF R/Fc Chimera, CF (R&D Systems Cat#344-ER) (human) (UniProt P00533); test: ECL multispot (MSD) binding assay, antigen spotted on plate, Fab in solution; blank spot 321
[2] = target: rHuman ErbB2/Fc Chimera, CF (R&D Systems Cat#1129-ER) (human) (UniProt P04626); test: as above
[3] = target: rHuman IGF-1 sR, CF (R&D Systems Cat#391-GR) (human) (UniProt P08069); test: as above
[4] = target: rHuman HGF R/c-MET/Fc Chimera, CF (R&D Systems Cat#358-MT/CF) (human) (UniProt P08581); test: as above
[5] = target: rHuman P-Cadherin/Fc Chimera, CF (R&D Systems Cat#861-PC) (human) (UniProt P22223); test: as above
[6] = target: rHuman CD44/Fc Chimera, CF (R&D Systems Cat#3660-CD) (human) (UniProt P16070); test: as above
[7] = target: rHuman Notch-1/Fc Chimera, CF (R&D Systems Cat#3647-TK) (human) (UniProt P46531); test: as above
[8] = target: rHuman EGF R/Fc Chimera, CF (R&D Systems Cat#344-ER) (human) (UniProt P00533); test: ECL multispot (MSD) binding assay, antigen spotted on plate, Fab in solution; blank spot 277
[9] = target: rHuman ErbB2/Fc Chimera, CF (R&D Systems Cat#1129-ER) (human) (UniProt P04626); test: as above
[10] = target: rHuman IGF-1 sR, CF (R&D Systems Cat#391-GR) (human) (UniProt P08069); test: as above
[11] = target: rHuman HGF R/c-MET/Fc Chimera, CF (R&D Systems Cat#358-MT/CF) (human) (UniProt P08581); test: as above
[12] = target: rHuman P-Cadherin/Fc Chimera, CF (R&D Systems Cat#861-PC) (human) (UniProt P22223); test: as above
[13] = target: rHuman CD44/Fc Chimera, CF (R&D Systems Cat#3660-CD) (human) (UniProt P16070); test: as above
[14] = target: rHuman Notch-1/Fc Chimera, CF (R&D Systems Cat#3647-TK) (human) (UniProt P46531); test: as above
[15] = target: rHuman Erythropoietin R/Fc Chimera, CF (R&D Systems Cat#963-ER) (human) (UniProt P19235); test: as above
[16] = target: rHuman EGF R/Fc Chimera, CF (R&D Systems Cat#344-ER) (human) (UniProt P00533); test: ECL multispot (MSD) binding assay, antigen spotted on plate, Fab in solution; blank spot 237
[17] = target: rHuman ErbB2/Fc Chimera, CF (R&D Systems Cat#1129-ER) (human) (UniProt P04626); test: as above
[18] = target: rHuman IGF-1 sR, CF (R&D Systems Cat#391-GR) (human) (UniProt P08069); test: as above
[19] = target: rHuman HGF R/c-MET/Fc Chimera, CF (R&D Systems Cat#358-MT/CF) (human) (UniProt P08581); test: as above
[20] = target: rHuman P-Cadherin/Fc Chimera, CF (R&D Systems Cat#861-PC) (human) (UniProt P22223); test: as above
[21] = target: rHuman CD44/Fc Chimera, CF (R&D Systems Cat#3660-CD) (human) (UniProt P16070); test: as above
[22] = target: rHuman Notch-1/Fc Chimera, CF (R&D Systems Cat#3647-TK) (human) (UniProt P46531); test: as above
[23] = target: rHuman Erythropoietin R/Fc Chimera, CF (R&D Systems Cat#963-ER) (human) (UniProt P19235); test: as above
[24] = target: rHuman EGF R/Fc Chimera, CF (R&D Systems Cat#344-ER) (human) (UniProt P00533); test: ECL (MSD) multispot binding assay, antigen spotted on the plate, Fab in solution; blank spot of this well 213
[25] = target: rHuman ErbB2/Fc Chimera, CF (R&D Systems Cat#1129-ER) (human) (UniProt P04626); test: as above
[26] = target: rHuman IGF-1 sR, CF (R&D Systems Cat#391-GR) (human) (UniProt P08069); test: as above
[27] = target: rHuman HGF R/c-MET/Fc Chimera, CF (R&D Systems Cat#358-MT/CF) (human) (UniProt P08581); test: as above
[28] = target: rHuman CD44/Fc Chimera, CF (R&D Systems Cat#3660-CD) (human) (UniProt P16070); test: as above
[29] = target: rHuman Notch-1/Fc Chimera, CF (R&D Systems Cat#3647-TK) (human) (UniProt P46531); test: as above
[30] = target: rHuman ErbB2/Fc Chimera, CF (R&D Systems Cat#1129-ER) (human) (UniProt P04626); test: MSD Multispot ECL, antigen spotted on plate, Fab in solution; blank spot of the row 424
[31] = target: rHuman IGF-1 sR, (IGF-1 sR), CF (R&D Systems Cat#391-GR) (human) (UniProt P08069); test: as above
[32] = target: rHuman CD44/Fc Chimera, CF (R&D Systems Cat#3660-CD) (human) (UniProt P16070); test: as above
[33] = target: rHuman ErbB2/Fc Chimera, CF (R&D Systems Cat#1129-ER) (human) (UniProt P04626); test: MSD Multispot ECL, antigen spotted on plate, Fab in solution; blank spot of the row 240
[34] = target: rHuman IGF-1 sR, (IGF-1 sR), CF (R&D Systems Cat#391-GR) (human) (UniProt P08069); test: as above
[35] = target: rHuman CD44/Fc Chimera, CF (R&D Systems Cat#3660-CD) (human) (UniProt P16070); test: as above
[36] = target: rHuman EGF R/Fc Chimera, CF (R&D Systems Cat#344-ER) (human) (UniProt P00533); test: ECL multispot (MSD) binding assay, antigen spotted on plate, Fab in solution; blank spot 349
[37] = target: rHuman ErbB2/Fc Chimera, CF (R&D Systems Cat#1129-ER) (human) (UniProt P04626); test: as above
[38] = target: rHuman IGF-1 sR, CF (R&D Systems Cat#391-GR) (human) (UniProt P08069); test: as above
[39] = target: rHuman HGF R/c-MET/Fc Chimera, CF (R&D Systems Cat#358-MT/CF) (human) (UniProt P08581); test: as above
[40] = target: rHuman P-Cadherin/Fc Chimera, CF (R&D Systems Cat#861-PC) (human) (UniProt P22223); test: as above
[41] = target: rHuman CD44/Fc Chimera, CF (R&D Systems Cat#3660-CD) (human) (UniProt P16070); test: as above
[42] = target: rHuman Notch-1/Fc Chimera, CF (R&D Systems Cat#3647-TK) (human) (UniProt P46531); test: as above
[43] = target: rHuman EGF R/Fc Chimera, CF (R&D Systems Cat#344-ER) (human) (UniProt P00533); test: ECL multispot (MSD) binding assay, antigen spotted on plate, Fab in solution; blank spot 215
[44] = target: rHuman ErbB2/Fc Chimera, CF (R&D Systems Cat#1129-ER) (human) (UniProt P04626); test: as above
[45] = target: rHuman IGF-1 sR, CF (R&D Systems Cat#391-GR) (human) (UniProt P08069); test: as above
[46] = target: rHuman HGF R/c-MET/Fc Chimera, CF (R&D Systems Cat#358-MT/CF) (human) (UniProt P08581); test: as above
[47] = target: rHuman P-Cadherin/Fc Chimera, CF (R&D Systems Cat#861-PC) (human) (UniProt P22223); test: as above
[48] = target: rHuman CD44/Fc Chimera, CF (R&D Systems Cat#3660-CD) (human) (UniProt P16070); test: as above
[49] = target: rHuman Notch-1/Fc Chimera, CF (R&D Systems Cat#3647-TK) (human) (UniProt P46531); test: as above
[50] = target: rHuman Erythropoietin R/Fc Chimera, CF (R&D Systems Cat#963-ER) (human) (UniProt P19235); test: as above

ECL signal [1]: 915 | ECL signal [2]: 1200 | ECL signal [3]: 982 | ECL signal [4]: 1130 | ECL signal [5]: 365 | ECL signal [6]: 600 | ECL signal [7]: 523
Substance: Fab VH5-51_IGHD5-18*01>3_IGHJ4*01 G100K/G104T D57A & V3-4_IGLJ1*01

ECL signal [8]: 745 | ECL signal [9]: 989 | ECL signal [10]: 827 | ECL signal [11]: 803 | ECL signal [12]: 334 | ECL signal [13]: 591 | ECL signal [14]: 566 | ECL signal [15]: 584
Substance: Fab VH5-51_IGHD5-18*01>3_IGHJ4*01 G100K/G104T Y52A & V3-4_IGLJ1*01

ECL signal [16]: 794 | ECL signal [17]: 925 | ECL signal [18]: 785 | ECL signal [19]: 822 | ECL signal [20]: 343 | ECL signal [21]: 632 | ECL signal [22]: 443 | ECL signal [23]: 523
Substance: Fab VH5-51_IGHD5-18*01>3_IGHJ4*01 G100K/G104T I50A & V3-4_IGLJ1*01

ECL signal [24]: 768 | ECL signal [25]: 1100 | ECL signal [26]: 781 | ECL signal [27]: 867 | ECL signal [28]: 540 | ECL signal [29]: 437 | ECL signal [30]: 1100 | ECL signal [31]: 877 | ECL signal [32]: 579 | ECL signal [33]: 1070 | ECL signal [34]: 964 | ECL signal [35]: 633
Substance: Fab VH5-51_IGHD5-18*01>3_IGHJ4*01 G100K/G104T (KT) & V3-4_IGLJ1*01

ECL signal [36]: 976 | ECL signal [37]: 1140 | ECL signal [38]: 943 | ECL signal [39]: 1000 | ECL signal [40]: 424 | ECL signal [41]: 556 | ECL signal [42]: 536
Substance: Fab VH5-51_IGHD5-18*01>3_IGHJ4*01 G100K/G104T P53A & V3-4_IGLJ1*01

ECL signal [43]: 803 | ECL signal [44]: 1090 | ECL signal [45]: 828 | ECL signal [46]: 875 | ECL signal [47]: 432 | ECL signal [48]: 517 | ECL signal [49]: 612 | ECL signal [50]: 497
Substance: Fab VH5-51_IGHD5-18*01>3_IGHJ4*01 G100K/G104T I51A & V3-4_IGLJ1*01
